Measurements as given in patent publication US20140256613A1 (BOARD OF REGENTS OF THE UNIVERSITY OF OKLAHOMA, published 2014).
Primed or numbered codes have the meaning given here. No end group written: not given here. FITC′ = fluorescein isothiocyanate; Ahx = NCCCCCC(=O)O

What was measured:
[1] = target: T1, recombinant human TLR4-MD2 protein (R&D Systems) (human, UniProt O00206 24-631; Q9Y6Y9 17-160); test: fluorescence polarization, 2 µM FITC-SPA4 with 0-5.6 µM TLR4-MD2, one-site fit, average Kd with blank subtraction; with blank subtraction
T1 construct: range 24-631;range 17-160; Bought protein, described as a mixture of recombinant human TLR4 and MD2 proteins expressed in NS0 cells; also called recombinant-TLR4-MD2 protein; soluble recombinant TLR4-MD2
Description: (§1) Experimental data were curve-fitted using Graphpad Prism program, and the binding affinity (Kd) was determined.
(§2) Lower values of the Kd indicate strong binding affinity.

[2] = target: T1, recombinant human TLR4-MD2 protein (R&D …); test: fluorescence polarization, 2 µM FITC-SPA4 with 0-5.6 µM TLR4-MD2, one-site fit, average Kd without blank subtraction; without blank subtraction
Description: as §1, §2

[3] = target: T1, recombinant human TLR4-MD2 protein (R&D …); test: fluorescence polarization, 2 µM FITC-SPA4 peptide with increasing recombinant TLR4-MD2, one-site binding fit, one representative experiment
Description: The background fluorescence polarization values were subtracted and plotted. The binding plot was then fitted into a one-site binding model using standard regression analysis and Kd values were noted. Results are from one representative experiment out of a total of three separate experiments performed at different times.
Regression analysis was carried out using the Graphpad Prism program (Graphpad software, La Zolla, Calif.). Experimental data were curve-fitted using Graphpad Prism program, and the binding affinity (Kd) was determined.

T1 sequence (O00206 other isoform, or with tags, fused parts or gaps limits assumed, form in doubt, chain 1 of 2): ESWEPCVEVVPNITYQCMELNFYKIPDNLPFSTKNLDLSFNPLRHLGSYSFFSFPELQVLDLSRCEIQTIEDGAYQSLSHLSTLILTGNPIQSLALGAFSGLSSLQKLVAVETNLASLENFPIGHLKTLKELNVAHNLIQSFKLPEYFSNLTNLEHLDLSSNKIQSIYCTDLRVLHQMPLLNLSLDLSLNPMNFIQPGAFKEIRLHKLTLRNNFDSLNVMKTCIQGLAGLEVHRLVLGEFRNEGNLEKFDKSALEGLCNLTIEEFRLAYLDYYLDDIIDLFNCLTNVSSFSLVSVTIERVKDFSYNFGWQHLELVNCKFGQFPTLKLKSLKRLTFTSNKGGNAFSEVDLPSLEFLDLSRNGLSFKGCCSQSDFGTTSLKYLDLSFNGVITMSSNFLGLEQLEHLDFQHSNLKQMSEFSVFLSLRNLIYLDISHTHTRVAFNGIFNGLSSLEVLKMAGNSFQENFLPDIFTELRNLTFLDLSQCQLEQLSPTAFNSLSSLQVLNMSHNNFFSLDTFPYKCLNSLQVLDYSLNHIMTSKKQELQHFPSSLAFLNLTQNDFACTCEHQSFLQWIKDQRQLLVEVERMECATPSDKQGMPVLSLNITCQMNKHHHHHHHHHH
T1 sequence (Q9Y6Y9 other isoform, or with tags, fused parts or gaps limits assumed, form in doubt, chain 2 of 2): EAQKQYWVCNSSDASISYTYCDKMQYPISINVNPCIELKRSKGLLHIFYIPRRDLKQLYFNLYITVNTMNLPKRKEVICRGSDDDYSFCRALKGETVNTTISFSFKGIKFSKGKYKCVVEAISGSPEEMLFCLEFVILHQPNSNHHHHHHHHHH

Kd [1]: 407 nM
Kd [2]: 255 nM
Kd [3]: 314 nM
B1: FITC-SPA4 peptide (peptide)
peptide: {FITC′-Ahx}-GDFRYSDGTPVNYTNWYRGE
notes: also called fluorescein isothiocyanate conjugated SPA4 peptide
